Data published in US20040176301A1 (CYCLACEL, published 2004).
Ends that are not written are not given here.

Assays:
[1] = target: CDK2/Cyclin E complex (UniProt P24941 1-298; P24864 1-410); test: cell-based or functional assay
[2] = target: CDK4/Cyclin D1 complex (UniProt P11802 1-303; P24385 1-295); test: cell-based or functional assay
Throughout, for % Inhibition, cyclin D1/CDK4 kinase: test concentration or dose not given here.
Throughout, for % Inhibition, cyclin E/CDK2 kinase: test concentration or dose not given here.

Sequence of CDK4/Cyclin D1 complex (P11802 other isoform, or with tags, fused parts or gaps, chain 1 of 2): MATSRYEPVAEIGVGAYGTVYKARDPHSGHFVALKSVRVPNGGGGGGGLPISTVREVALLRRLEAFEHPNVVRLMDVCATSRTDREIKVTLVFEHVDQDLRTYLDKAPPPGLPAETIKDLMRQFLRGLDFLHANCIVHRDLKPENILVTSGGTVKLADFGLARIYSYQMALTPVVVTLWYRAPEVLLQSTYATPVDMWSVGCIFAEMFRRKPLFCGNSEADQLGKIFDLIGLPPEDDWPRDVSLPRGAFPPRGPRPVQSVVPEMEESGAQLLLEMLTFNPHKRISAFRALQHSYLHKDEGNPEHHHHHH
Sequence of CDK4/Cyclin D1 complex (P24385 whole entry, chain 2 of 2): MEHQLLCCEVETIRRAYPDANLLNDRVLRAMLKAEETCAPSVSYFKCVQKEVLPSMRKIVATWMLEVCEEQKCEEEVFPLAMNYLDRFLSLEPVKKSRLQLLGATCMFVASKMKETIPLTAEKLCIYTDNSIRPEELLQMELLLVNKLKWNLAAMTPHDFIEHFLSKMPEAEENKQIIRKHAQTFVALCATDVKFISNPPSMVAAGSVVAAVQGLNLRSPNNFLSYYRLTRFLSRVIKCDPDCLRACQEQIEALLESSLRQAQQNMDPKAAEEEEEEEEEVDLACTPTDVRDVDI

Binder	% Inhibition, cyclin E/CDK2 kinase [1] [%]	IC50, cyclin E/CDK2 kinase, GST-pRb [1] [µM]	% Inhibition, cyclin D1/CDK4 kinase [2] [%]	IC50, cyclin D1/CDK4 kinase, GST-pRb [2] [µM]
AFYHSKRRLIFS-NH2 [AFYHSKRRLIFS-NH2]	70	11	72	22
YHSKRRLI-NH2 [YHSKRRLI-NH2]	45	> 200	15	–
FYHSKRRL-NH2 [FYHSKRRL-NH2]	48	> 200	20	–
HSKRRLI-NH2 [HSKRRLI-NH2]	35	–	10	–
SKRRLIFSKRKP-NH2 [SKRRLIFSKRKP-NH2]	70	46	40	–
HSKRRLIFS-NH2 [HSKRRLIFS-NH2]	80	3.4	65	32
DFYHSKRALIFS-NH2 [DFYHSKRALIFS-NH2]	70	30	30	–
SMTDFYHSKRRL-NH2 [SMTDFYHSKRRL-NH2]	40	–	18	–
DFYHSKRRAIFS-NH2 [DFYHSKRRAIFS-NH2]	30	–	30	–
KRRLIFSK-NH2 [KRRLIFSK-NH2]	60	> 200	20	–
DFYHSKRRLAFS-NH2 [DFYHSKRRLAFS-NH2]	80	14	61	53
DFYHSKARLIFS-NH2 [DFYHSKARLIFS-NH2]	25	–	30	–
FYHSKRRLI-NH2 [FYHSKRRLI-NH2]	45	–	20	–
MTDFYHSKRRLI-NH2 [MTDFYHSKRRLI-NH2]	35	–	11	–
FYHSKRR-NH2 [FYHSKRR-NH2]	45	> 200	20	–
YHSKRRL-NH2 [YHSKRRL-NH2]	30	> 200	10	–
DFAHSKRRLIFS-NH2 [DFAHSKRRLIFS-NH2]	80	5.3	56	121
SKRRLIF-NH2 [SKRRLIF-NH2]	80	7.7	72	54
TSMTDFYHSKRR-NH2 [TSMTDFYHSKRR-NH2]	35	–	30	–

Binder	% Inhibition, cyclin E/CDK2 kinase [1] [%]	IC50, cyclin E/CDK2 kinase, GST-pRb [1] [µM]	% Inhibition, cyclin D1/CDK4 kinase [2] [%]	IC50, cyclin D1/CDK4 kinase, GST-pRb [2] [µM]
YHSKRRLIFS-NH2 [YHSKRRLIFS-NH2]	80	7.3	70	20
FYHSKRRLIFS-NH2 [FYHSKRRLIFS-NH2]	80	6.8	70	22
DFYHSKR-NH2 [DFYHSKR-NH2]	50	200	–	–
YHSKRR-NH2 [YHSKRR-NH2]	40	–	10	–
DFYASKRRLIFS-NH2 [DFYASKRRLIFS-NH2]	80	5.1	60	73
H-KRRLIF-NH2 [H-Lys-Arg-Arg-Leu-Ile-Phe-NH2]	80	1.1	72	> 200
DFYHSKRRLIAS-NH2 [DFYHSKRRLIAS-NH2]	20	–	35	–
DFYHSARRLIFS-NH2 [DFYHSARRLIFS-NH2]	80	12.9	50	200
DAYHSKRRLIFS-NH2 [DAYHSKRRLIFS-NH2]	85	5.9	76	37
FYHSKRRLIFSK-NH2 [FYHSKRRLIFSK-NH2]	70	26	70	41
TDFYHSKRRLIF-NH2 [p21 (148-159) TDFYHSKRRLIF-NH2]	85	2.2	72	–
DFYHSKRRLIFA-NH2 [DFYHSKRRLIFA-NH2]	70	5.4	60	40
FYHSKR-NH2 [FYHSKR-NH2]	20	–	10	–
HSKRRLIFSKRK-NH2 [HSKRRLIFSKRK-NH2]	90	8.7	80	34
YHSKR-NH2 [YHSKR-NH2]	25	–	10	–
YHSKRRLIFSKR-NH2 [YHSKRRLIFSKR-NH2]	80	17.6	60	45
FYHSKRRLIF-NH2 [p21 (150-159) FYHSKRRLIF-NH2]	80	–	70	–
HSKRRL-NH2 [HSKRRL-NH2]	45	> 200	–	–
YHSKRRLIF-NH2 [p21 (151-159) YHSKRRLIF-NH2]	80	7	70	–
